From the MegaScale stability set (Tsuboyama et al. 2023)

B1: EHEE_rd2_0601 (parent)
chain: TYTYKLTDEEASRRAEDEWRNRGYDVRVRNNNGTWEVEVR
B2: EHEE_rd4_0086 (parent)
chain: EIHIRTNGEEQARKVYKMLAKRNYDVKIEQHNGQWVVTAS

Variants of: B1
Assay: folding stability dG (cDNA display proteolysis); higher = more stable
Conditions: PBS, room temperature

Folding stability dG [kcal/mol]: each site, then its substitutions
R40: F 1.65, G 0.86, H 1.1, I 1.51, K 1.29, L 1.43, M 1.41, N 0.95, P 0.016, Q 1.09, S 1.71, T 1.54, V 1.32, W 1.8, Y 1.59

Variants of: B2
Assay: as above
Conditions: PBS, room temperature

Folding stability dG [kcal/mol], by site and new letter:
E1: A 2.08, D 1.72, F 2.51, G 1.84, H 2.46, I 2.48, K 2.3, L 2.37, M 2.29, N 1.8, P 1.91, Q 2.17, R 2.29, S 2.08, T 2.31, V 2.47, W 2.55, Y 2.5
I2: A 0.327, D 0.01, E 0.258, F 2.2, G -0.001, H 0.983, K 0.769, L 1.61, M 1.38, N 0.024, P 0.357, Q 0.226, R 0.978, S 0.144, T 0.864, V 1.42, W 2.36, Y 1.65
H3: A 1.64, D 0.614, E 2, F 2.2, G 0.661, I 2.81, K 2.26, L 2.14, M 2.23, N 1.67, P 0.072, Q 2.06, R 2.4, S 2, T 2.41, V 2.85, W 2.12, Y 2.36
I4: A 0.01, D -0.257, E -0.06, F 2.16, G -0.953, H 0.442, K -0.031, L 1.12, M 0.855, N -0.203, P -0.436, Q 0.032, R 0.105, S -0.073, T -0.094, V 1.46, W 1.65, Y 2.12
R5: A 1.53, C 2.85, D 0.471, E 1.34, F 2.36, G 0.692, H 1.96, I 2.4, K 1.75, L 2.08, M 1.98, N 1.18, P 1.19, Q 1.52, S 1.45, T 1.97, V 2.32, W 2.43, Y 2.52
T6: A 1.73, D -0.07, E 0.299, F 3.03, G 0.494, H 0.847, I 2.02, K 0.706, L 2.35, M 1.91, N 0.438, P 0.496, Q 0.309, R 0.963, S 1.16, V 2.55, W 0.843, Y 1.89
N7: A 1.95, D 1.82, E 1.69, F 2.03, G 1.5, H 1.73, I 1.69, K 1.77, L 1.81, M 1.69, P 1.32, Q 1.85, R 2.06, S 1.95, T 1.99, V 1.66, W 2.08, Y 1.99
G8: A 1.79, D 2.96, E 2.06, F 2.22, H 2.21, I 2.21, K 2.1, L 2.05, M 1.88, N 2.94, P 0.221, Q 1.94, R 2.17, S 3.25, T 2.86, V 2.06, W 2.02, Y 2.22
E9: A 1.53, D 0.638, F 2.33, G 0.745, H 1.55, I 2.26, K 1.69
